This is an account of results in the nanobody polyreactivity screen of Harvey et al. (2022).

A short description of the data set: yeast display, Sf9 membrane polyspecificity reagent, FACS + sequencing; frameworks hold sequencing errors. In outline:
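After 36–48 hours of galactose induction, yeast (Saccharomyces cerevisiae BJ5465) displaying a synthetic nanobody library were stained at 4 °C for 1 hour with 10% biotinylated, detergent-solubilized Sf9 membrane reagent. Streptavidin microbeads enriched the stained cells before FACS sorting into low and high (top ~1%) gates on anti-HA and streptavidin fluorescence. Each clone's polyreactivity label reflects its gate of origin.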
Take “QVQLVESGGGLVQAGGSLRLSCAASGFIFEWNGMGWYRQAPGKERELVAAITWSGGSTYYADSVKGRFTISRDNAKYTVYLHMNSLKPEDTAVYYCAADFPEYYLPYDYWGQGTQVTVSS”: the “polyreactivity (PSR sort gate)” value is recorded as “low polyreactivity”.
Under “QVQLVESGGGLVQAGGSLRLSCAASGFIFEWYAMGWYRQAPGKERELVAGIDSGSTYADSVKGRFTISRDNAKNTVYLQMNSLKPEDTAVYYCAKRSDAVIQRTYRYDYWGQGTQVTVSS” stands “low polyreactivity”.
Take “QVQLVESGGGLVQAGGSLRLSCAASGFIFEYYAMGWYRQAPGKERELVAAINGGGGNTYYADSVKGRFTISRDNAKNTVYLQMNSLKPEDTAVYYCNAKRRKYRYDYWGQGTEVTVSS”: the “polyreactivity (PSR sort gate)” value is recorded as “high polyreactivity”.
The value for “QVQLVESGGGLVQAGGSLRLSCAASGFIFEYYAMGWYRQAPGKERELVAAISSSGGSTYYADSVKGRFTISRDNAKNTVYLQMNSLKPEDTAVYYCAKDYAPSATKLHYWGQGTQVTVSS” was “low polyreactivity”; that for “QVQLVESGGGLVQAGGSLRLSCAASGFIFFKYAMGWYRQAPGKERELVAGITSGGSTYYADSVKGRFTISRDNAKNTVYLQMNSLKPEDTAVYYCAAYVKRESAPYGYWGQGTQVTVSS” was “low polyreactivity”; that for “QVQLVESGGGLVQAGGSLRLSCAASGFIFFLNAMGWYRQAPGKERELVAAISSSGGRTYYADSVKGRFTISRDNAKNTVYLQMNSLKPEDTAVYYCNAVTLYRSRTDGYWGQGTQVTVSS” was “high polyreactivity”.
Take “QVQLVESGGGLVQAGGSLRLSCAASGFIFFQNAMGWYRQAQGKERELVAAISRRGGSTYYADSVKGRFTISRDNAKNTVYLQMNSLKPEDTAVYYCAARSRGDLASLYTGDYWGQGTQVTVSS”: the “polyreactivity (PSR sort gate)” value is “low polyreactivity”.
Under “QVQLVESGGGLVQAGGSLRLSCAASGFIFFRYDMAWYRQAPGKERELVAVITSSGSTNYADSVKGRFTISRDNAKNTVYLQMNSLKPEDTAVYYCNARGYWTWYRGYRMDYWGQGTQVTVSS” stands “high polyreactivity”.
Turning to “QVQLVESGGGLVQAGGSLRLSCAASGFIFFSYAMGWYRQAPGKEREFVASISGRTGSTYYADSVKGRFTISRDNAKNTVYLQMNSLKPEDTAVYYCNARIVHSFRYDYWGQGTQVNVSS”, the “polyreactivity (PSR sort gate)” value was “low polyreactivity”.
The value for “QVQLVESGGGLVQAGGSLRLSCAASGFIFFVNAMGWSRQAPGKEREFVATITGSGGSTYYADSVKGRFTISRDNAKNTVYLQMNSLKPEDTAVYYCAADSLTPKSASDYWGQGTQVTVSS” was “low polyreactivity”; that for “QVQLVESGGGLVQAGGSLRLSCAASGFIFFVNAMGWYRQAPGKEREFVATITGSGGSKYYADSVKGRFTISRDIAKNTVYLQMISLKPEDTAVYYCNAETYIVLRGKFPVEYDYWGQGTQVTVSS” was “low polyreactivity”.
The value for “QVQLVESGGGLVQAGGSLRLSCAASGFIFFYYAMGWYRQAPGKERELVAAITKNGGRTYYADSVKGRFTISRDNAKNTVYLQMNSLKPEDTAVYYCNKVKGQGGYYGYDYWGQGTQVTVSS” was “high polyreactivity”; that for “QVQLVESGGGLVQAGGSLRLSCAASGFIFGDYAMGWYRQAPGKERELVAAINRGASTYYADSVKGSFTISRDNPKNTVYLQMNSLTPEDTAVYYCAAAGNSRGGRGGYWGQGTQVSVSS” was “high polyreactivity”.
Under “QVQLVESGGGLVQAGGSLRLSCAASGFIFGDYAMGWYRQAPGKERELVAAISRSGGRTYYADSVKGRFTISRDNAKNTVYLQMNSLKPEDTAVYDCAKSCLNIYDYWGQVTQVTVSS” stands “high polyreactivity”; under “QVQLVESGGGLVQAGGSLRLSCAASGFIFGDYAMGWYRQAPGKERELVAAITWSGGRTYYADSVKGRFTISRDNAKNTVYLQMNSLKPEDTAVYYCSAVWYTSRQKYDYWGQGTQVTVSS”, “low polyreactivity”.
Regarding “QVQLVESGGGLVQAGGSLRLSCAASGFIFGFNAMGWYRQAPGKERELVAVFNRSGSRTYYADSVKGRFTISRDNAKNTVYLQMNSLKPEDTAVYYCNAYPRYQYWGQGTLVTVSS”, the “polyreactivity (PSR sort gate)” value was “high polyreactivity”.
Consider “QVQLVESGGGLVQAGGSLRLSCAASGFIFGGNAMGWYRPAPGKERELVAAISRRGGNTYYADSVKGRFTISRDNAKITVYLQMNSLKPEDTAVYYCATGTSYWYLWAYDYWGQGTQVTVSS”, for which the “polyreactivity (PSR sort gate)” value is given as “high polyreactivity”.
The value for “QVQLVESGGGLVQAGGSLRLSCAASGFIFGGNVMGWYRQAPGKEREFVAAITDGDGSTYYADSVKGRFTISRDNAKNTVYLQMNSLKPEDTAVYYCAADVYYADVYPVEYWGQGTQVTVSS” was “high polyreactivity”; that for “QVQLVESGGGLVQAGGSLRLSCAASGFIFGGYAMGWSRQAPGKERELVADISSSGGSTYYADSVKGRFTLSRDNAKNTVYLQMNSLKPEDTAVYDCAKVGWSRRYYYWGQGTQVTVSS” was “high polyreactivity”.
Under “QVQLVESGGGLVQAGGSLRLSCAASGFIFGGYAMGWYRPAPGKERELVAAISSSGGSTYYADSVKGRFTISRDNAKNTVYLQMNSLKPEDTAVYYCAARIQSVSSGRWFDYWGQGTQVTVSS” stands “high polyreactivity”; under “QVQLVESGGGLVQAGGSLRLSCAASGFIFGGYAMGWYRQAPGKERALVAAITRSGGSTYYADSVKGRFTISRDNAKNTVYLQMNSLKPEDTAVYYCAAERQPYRTSSYNYWGQGTQVTVSS”, “high polyreactivity”; under “QVQLVESGGGLVQAGGSLRLSCAASGFIFGINAMGWYRQAPGKDRELVATITSGGGTNYADSVKGRFTISRDNAKNTVYLQMNSLKPEETAVYYCAAEEDYISFYVSMDYWGQGTQVTVSS”, “low polyreactivity”.
Under “QVQLVESGGGLVQAGGSLRLSCAASGFIFGINAMGWYRQEPGKERELFAAISKRTGSTYYADSVKGRFTISRDNAKNTVYLQMNSLKPEDTAFYYCNVVRYNGLDKYEYWGQGTQVTVSS” stands “high polyreactivity”.
“QVQLVESGGGLVQAGGSLRLSCAASGFIFGIYAMGWYRQAPGKERELVARISRSGVSTYYADSVKGRFTISRDNAKNTVYLQMNSLKPEDTAVYYCNAYRGGLSSEHYYWGQGTQVTVSS”: the “polyreactivity (PSR sort gate)” value is given as “high polyreactivity”.
The value for “QVQLVESGGGLVQAGGSLRLSCAASGFIFGKYAMGWYRQAPGKERELVAAITSDGRTYYADSVKGRFTISRDNAKNTVYLEMNSLKPEDTAVYYCAVDYYWYWYSGYDDYWGQGTQVTVSS” was “high polyreactivity”; that for “QVQLVESGGGLVQAGGSLRLSCAASGFIFGLNAMGWYRPAPGKERELVAAISYNGGSTYYADSVKGRFTISRDNAKNTVYLQMNSLKPEDTAVDYCNAYLYRKVGYRAYDYWGHGTQVTVSS” was “low polyreactivity”; that for “QVQLVESGGGLVQAGGSLRLSCAASGFIFGLYAMGWYRQAPGKERELVAAISSGGSTYYADSVKGRFTISRDNAKNTVYLQMNSLKPEDTAVYYCAAYYVYSEYDYWGQGTQVTVSS” was “high polyreactivity”.
Under “QVQLVESGGGLVQAGGSLRLSCAASGFIFGLYDMGWYRQAPGKERELVARISWGGGTYYADSVKGRFTISRDNAKNTVYLQMNSLKPEDTAVYYCNTRTRGYYYNSYYWTKYGYWGQGTQVTVSS” stands “high polyreactivity”; under “QVQLVESGGGLVQAGGSLRLSCAASGFIFGNYPMGWYRQAPGKQRELVAAITSGGNTNYADSVKGRFTISRDNAKNTVYLQMNSLKPEDTAVYYCAADRNLYWVFSPNETEDYWGQGTQVTVSS”, “low polyreactivity”.
The value for “QVQLVESGGGLVQAGGSLRLSCAASGFIFGPYAMGWYRPAPGKERELVASISNSGDSTYADSVKGRFTISRDTAKNTVYLQMNSLKPEDTAVYYCNADGFVGTPSVDYDYWGQGTQVTVSS” was “low polyreactivity”; that for “QVQLVESGGGLVQAGGSLRLSCAASGFIFGPYTMGWYRQAPGKERELVAAINNSGSTNYADSVKGRFTISRDNAKNTVYLQMNCLKPEDTAVYFCAAEPIIFVRYDYWGQGTQVTVSS” was “low polyreactivity”.
As to “QVQLVESGGGLVQAGGSLRLSCAASGFIFGQYALGGYRQAPGKERELVAVITSSGGRTYYADSVKGRFTISRDNAKNTVYLQMNSLKPEDTAVYYCAAPGYGLQVRGRYGYWGQGTQVTVSS”, the “polyreactivity (PSR sort gate)” value was “high polyreactivity”.
With “QVQLVESGGGLVQAGGSLRLSCAASGFIFGQYAMGWYRQAPGKERELVAAISWSGGRTNYADSVKGRYTISRDNAKNTVYLQMNSLKPEDTAVYYCAARKGKYPQYTYGYWGQGTQVTVSS”, the “polyreactivity (PSR sort gate)” value is “high polyreactivity”.
Under “QVQLVESGGGLVQAGGSLRLSCAASGFIFGRYAMGWDREAPGKERELVAGIRSSGGSTYYADSVKGRFTISRDNAKNTVYLQMNSLKPEDTAVYYCAARTYGQSLDYWGQGTQVTVSS” stands “high polyreactivity”; under “QVQLVESGGGLVQAGGSLRLSCAASGFIFGRYAMGWYRPAPGKERELVAAITASGGRTYYADSVKGRFTISRDNAKNTVYIQMNSLKPEDTAVYYCNTPSLWSGEDYWGQGTQVTVSS”, “low polyreactivity”.
The value for “QVQLVESGGGLVQAGGSLRLSCAASGFIFGRYAMGWYRQAPGKERELVAAITWSGGRTYYADSVKGRFTISRDNAKNTVFLQMNSLKPEDTAVYYCNAQGYTTYRGDYWGQGTQVTVSS” was “high polyreactivity”; that for “QVQLVESGGGLVQAGGSLRLSCAASGFIFGRYAMGWYRQAPGKERELVAAITYSSGSTYYADSVKGRFTISRDNAKNTVYLQMNSLKPEDTAVYYCNAEFWYETLYEYDYWGQGTQVTVSS” was “high polyreactivity”.
“QVQLVESGGGLVQAGGSLRLSCAASGFIFGRYAMGWYRQAPGKERELVAVITWSGGRTYYADSVKGRFTISRDNAKNTVYLQMNSLKPEDTAVYDCAADRYPYHYGYDYWGQGTQVTVSS”: the “polyreactivity (PSR sort gate)” value was “high polyreactivity”.
The value for “QVQLVESGGGLVQAGGSLRLSCAASGFIFGRYAMGWYRQAPGKETELVAAISVSGGSTYYADSVKGRFTISRDNAKNTVYLQMNSLKPEDTAVYYCNVARWVSVSRSYGGNYWGQGTQVTVSS” was “high polyreactivity”; that for “QVQLVESGGGLVQAGGSLRLSCAASGFIFGSNAMGWYRQAPGKERELVAAISRSGGSTYYADSVKGRFTISRDNAKNTVYLQMNSLKPEDTAVYYCASYLYKSRYLPEYDYWGQGTQVTVSS” was “high polyreactivity”.
Under “QVQLVESGGGLVQAGGSLRLSCAASGFIFGSYTMGWYRQAPGKERELVAAISSSVGRTYYADSVKGRFTISRDNAKNTVYLQMNSLKPEDTAVYYCAARRHGRVDYSQGSRESYYWGQGTQVTVSS” stands “high polyreactivity”.
